Values quoted from earlier work as cited in article PMC9092467.

Legend:
His32 = His32 (UniProt position 32, FGDVNHTNGNV); experiment: NMR
His83 = His83 (UniProt position 83, FNEPAHTLYGQ); experiment: NMR
[1] = apoprotein (no haem or haem analogue bound)
[2] = holoprotein with gallium protoporphyrin IX, Ga(PPIX), bound

Haem acquisition system protein A (hemophore HasA) (Serratia marcescens)
pKa (His32; [1]): 7.3 | pKa (His32; [2]): <4.8 | pKa (His83; [1]): 5.6 | pKa (His83; [2]): 9.7
